In experiment [1] the target is T1, CNNM2-H523K/S269P (mouse) (UniProt Q3TWN3).
T1 sequence: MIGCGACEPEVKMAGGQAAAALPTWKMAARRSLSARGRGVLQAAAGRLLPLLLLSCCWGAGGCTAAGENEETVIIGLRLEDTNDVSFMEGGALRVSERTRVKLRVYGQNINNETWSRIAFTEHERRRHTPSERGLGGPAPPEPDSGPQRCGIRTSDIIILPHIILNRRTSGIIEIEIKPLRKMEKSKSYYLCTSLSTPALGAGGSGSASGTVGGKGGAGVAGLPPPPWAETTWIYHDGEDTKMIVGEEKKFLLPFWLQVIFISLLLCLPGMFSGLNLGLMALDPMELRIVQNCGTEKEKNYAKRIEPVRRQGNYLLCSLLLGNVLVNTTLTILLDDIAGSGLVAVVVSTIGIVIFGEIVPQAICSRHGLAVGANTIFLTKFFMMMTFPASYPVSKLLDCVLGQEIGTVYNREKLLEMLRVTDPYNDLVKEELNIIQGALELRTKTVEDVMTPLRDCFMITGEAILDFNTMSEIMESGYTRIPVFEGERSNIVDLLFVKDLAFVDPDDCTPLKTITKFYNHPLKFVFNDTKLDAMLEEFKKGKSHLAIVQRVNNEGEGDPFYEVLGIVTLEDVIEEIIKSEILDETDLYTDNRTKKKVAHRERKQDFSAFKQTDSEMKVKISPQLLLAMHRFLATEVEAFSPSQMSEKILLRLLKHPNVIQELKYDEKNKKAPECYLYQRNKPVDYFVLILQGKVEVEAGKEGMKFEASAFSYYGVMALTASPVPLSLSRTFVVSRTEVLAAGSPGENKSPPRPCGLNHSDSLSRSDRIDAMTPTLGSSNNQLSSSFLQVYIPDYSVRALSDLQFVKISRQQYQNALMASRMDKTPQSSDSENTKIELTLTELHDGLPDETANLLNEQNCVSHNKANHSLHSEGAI

For experiment [2], the target named is T2, CNNM2-S269P (mouse) (UniProt Q3TWN3).
T2 sequence: T1 sequence with K523H

The target of experiment [3] is T3, FLAG-tagged CNNM2 lacking the CBS-pair domain, CNNM2-ΔCBS(469–578) (mouse) (UniProt Q3TWN3).
T3 sequence: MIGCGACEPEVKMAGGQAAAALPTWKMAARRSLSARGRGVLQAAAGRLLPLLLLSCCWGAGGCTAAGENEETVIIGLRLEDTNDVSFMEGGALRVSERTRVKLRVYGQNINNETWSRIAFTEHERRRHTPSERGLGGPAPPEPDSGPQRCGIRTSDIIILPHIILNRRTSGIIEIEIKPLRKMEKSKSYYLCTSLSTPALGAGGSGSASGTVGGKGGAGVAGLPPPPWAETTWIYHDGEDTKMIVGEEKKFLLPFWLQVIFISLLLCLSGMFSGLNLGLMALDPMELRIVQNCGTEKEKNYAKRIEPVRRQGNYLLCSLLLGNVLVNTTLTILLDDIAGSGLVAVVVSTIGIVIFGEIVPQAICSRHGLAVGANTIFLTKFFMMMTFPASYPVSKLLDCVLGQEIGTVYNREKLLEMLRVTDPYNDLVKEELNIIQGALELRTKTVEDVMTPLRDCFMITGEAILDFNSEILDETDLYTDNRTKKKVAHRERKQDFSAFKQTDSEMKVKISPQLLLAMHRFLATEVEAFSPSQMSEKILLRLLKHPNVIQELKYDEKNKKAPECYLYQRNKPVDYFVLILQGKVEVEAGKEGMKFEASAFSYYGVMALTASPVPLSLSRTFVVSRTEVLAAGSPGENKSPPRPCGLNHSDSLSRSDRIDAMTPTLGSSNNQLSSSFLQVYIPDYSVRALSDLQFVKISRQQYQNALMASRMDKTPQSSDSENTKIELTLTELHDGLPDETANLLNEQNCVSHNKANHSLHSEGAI

Numbering of substitutions follows the chain as printed.

B1: Myc-DDK tagged ARL15 (natural protein)
chain: MSDLRITEAFLYMDYLCFRALCCKGPPPARPEYDLVCIGLTGSGKTSLLSKLCSESPDNVVSTTGFSIKAVPFQNAILNVKELGGADNIRKYWSRYYQGSQGVIFVLDSASSEDDLEAARNELHSALQHPQLCTLPFLILANHQDKPAARSVQEIKKYFELEPLARGKRWILQPCSLDDMDALKDSFSQLINLLEEKDHEAVRM
Regarding B1, the outward TRPM7 current density at +100 mV in 293-M7-ΔCNNM3/4 cells with CNNM2-H523K/S269P, without vs with ARL15 (the value is with ARL15); not different in experiment [1] was 294. The same molecule returned an outward TRPM7 current density at +100 mV in 293-M7-ΔCNNM3/4 cells with CNNM2-S269P, without vs with ARL15 (the value is with ARL15); marked reduction in experiment [2] of 123. Besides, the outward TRPM7 current density at +100 mV in 293-M7-ΔCNNM3/4 cells with CNNM2-ΔCBS, without vs with ARL15 (the value is with ARL15); not different in experiment [3] stood at 330.

For the origin of these results see paper PMC12547303.
